Test results taken from PMC9998937.

Target: T1, ArcR (Staphylococcus aureus NCTC8325) (UniProt Q2FUY1)
T1 sequence: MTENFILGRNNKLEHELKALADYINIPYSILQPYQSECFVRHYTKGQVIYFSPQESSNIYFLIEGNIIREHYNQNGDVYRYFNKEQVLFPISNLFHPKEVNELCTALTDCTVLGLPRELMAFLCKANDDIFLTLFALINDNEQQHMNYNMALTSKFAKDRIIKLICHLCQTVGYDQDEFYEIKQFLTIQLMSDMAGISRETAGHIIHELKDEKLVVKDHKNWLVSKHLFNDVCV
Assay: EMSA

Which binding does the source give for “ACACCAGTTAACTTTTTGTCTTGTTGTGACATAGTCATCCCTCCACAATTTATAATAATTATAATTTAATACATATTATAATTTAACCCCATCAAAATTACAATTAAACATGCTCAAGATGATTAAAAAATCAGAAAATTTTAATTTTTTCGCTTTACAGTACTAAATAGTTATTGAATAGTACACTTAAAAAGCTTACAATAATGGGTATATTTAAATAGATGGGAGACTAAATATGGAAGAT (double strand) [katA promoter region]” here?
The binding was “binds”.

“AGCGCGTGTTGTTATGTCGCGAATGGTAATCTTTTCTAAATCTTTTTCTTGTAGTAATTTAGTGAACGCTTGTTTAATGGAGGACTTTGTCTTTCTAATTCGCCTATCTTCTTTCAAAAATAAATCAACCTCCTTGTGTTATTGAACAATGTGGGTGTATTTGTCTATTAATGAACGTATTGATGAACATTGTGTATTGTTTATTCCCACTTACATATTATAATAGACAACATGCGAAATATTCAACACATTGTCTAATAAGGAGGT (double strand) [tetA promoter region]” was tested. Which binding did it give?
The binding was “no binding”.
